Measurements published in publication PMC7511442.

Key:
[1] = target: GFP-GiKIN14a (recombinant full-length GiKIN14a with an N-terminal GFP) (Giardia intestinalis); assay: hydrodynamic analysis
[2] = target: GFP-GiKIN14a-Δtail (Giardia intestinalis); assay: hydrodynamic analysis
[3] = target: GFP-GiKIN14a-Δtail (Giardia intestinalis); assay: single-molecule photobleaching

Substance	stoichiometry N [1]	stoichiometry N [2]	stoichiometry N [3]
GFP-GiKIN14a (recombinant full-length GiKIN14a with an N-terminal GFP) (natural protein)	2	–	–
GFP-GiKIN14a-Δtail (domain or fragment)	–	2	2
